Data reported in patent US20110293610A1 (published 2011).
Values belong to the binder of their own block, whether it stands above or below them.

Tests used:
[1] = target: T1, B Lymphocyte Stimulator, soluble form (human) (human, UniProt Q9Y275 134-285, biotinylated with NHS-biotin where used as biotinylated B Lymphocyte Stimulator); test: phage display panning on soluble BLyS
T1 construct: Coated on plastic, captured on streptavidin plates, amine-coupled to a CM5 chip or free in solution, depending on the assay; also called BLyS; immobilized B Lymphocyte Stimulator
Description: (§1) In a specific embodiment, antibodies of the present invention cross react with APRIL (SEQ ID NO:3239; GenBank Accession No. AF046888; J. Exp. Med. 188(6):1185-1190; PCT International Publication WO97/33902). […] These scFvs were isolated by panning a phage scFv library comprising VH and VL domains obtained from human bone marrow B cells (BM library). Phage from the BM phage library were first selected for binding to soluble B Lymphocyte Stimulator (amino acids 134-285 of SEQ ID NO:3228). A second round of selection for binding to the soluble form of APRIL (amino acids 105-250 of SEQ ID NO:3239) was then performed on the B Lymphocyte Stimulator binding phage selected in round one. A third round of selection for binding to the soluble form of APRIL (amino acids 105-250 of SEQ ID NO:3239) was then performed on the phage selected in round two. A final (fourth) round of selection for binding to the soluble form of B Lymphocyte Stimulator (amino acids 134-285 of SEQ ID NO:3228) was then performed on the phage selected in round three. Phage clones that bound B Lymphocyte Stimulator in the fourth round of selection were eluted with either 0.1M triethylamine (TEA) or with a TACI-Fc fusion protein (e.g., the extracellular domain of TACI (amino acids 31 to 159 of Genbank Accession No. AAC51790) fused to Fc).

APRIL, soluble form = target: T2, APRIL, soluble form (Homo sapiens (Human), UniProt O75888 105-250); test: phage display panning on soluble APRIL, rounds two and three
T2 sequence: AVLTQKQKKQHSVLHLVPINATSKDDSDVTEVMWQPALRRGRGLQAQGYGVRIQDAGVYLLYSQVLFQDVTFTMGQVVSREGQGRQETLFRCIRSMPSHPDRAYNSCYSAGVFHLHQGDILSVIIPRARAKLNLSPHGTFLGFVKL
Description: as §1

[2] = target: T3, B Lymphocyte Stimulator, soluble form (human, UniProt Q9Y275 134-285); test: BIAcore, IgG1 captured on low-density Protein A, BLyS flowed over; mean ± SD
T3 construct: also called BLyS; Neutrokine-alpha
Procedure: Briefly, antibodies were captured on low-density Protein A surfaces and B Lymphocyte Stimulator was passed over at various flow rates. The binding of B Lymphocyte Stimulator to immobilized antibody was detected by changes in […] that were proportional to the amount of bound B Lymphocyte Stimulator. Binding values were calculated using software provided by the manufacturer.

[3] = target: T4, membrane-bound B Lymphocyte Stimulator on U937 plasma membrane preparations (human, UniProt Q9Y275 1-285); test: phage ELISA
T4 construct: Natural protein in plasma membrane fractions of the human cell line U937 coated on ELISA plates; also called U937 plasma membranes; U937 membranes

[4] = target: T1, B Lymphocyte Stimulator, soluble form …; test: phage ELISA
Bovine serum albumin = target: T5, Bovine serum albumin (bovine, UniProt P02769 25-607); test: phage ELISA
T5 construct: also called BSA
T5 sequence (P02769 25-607 limits assumed): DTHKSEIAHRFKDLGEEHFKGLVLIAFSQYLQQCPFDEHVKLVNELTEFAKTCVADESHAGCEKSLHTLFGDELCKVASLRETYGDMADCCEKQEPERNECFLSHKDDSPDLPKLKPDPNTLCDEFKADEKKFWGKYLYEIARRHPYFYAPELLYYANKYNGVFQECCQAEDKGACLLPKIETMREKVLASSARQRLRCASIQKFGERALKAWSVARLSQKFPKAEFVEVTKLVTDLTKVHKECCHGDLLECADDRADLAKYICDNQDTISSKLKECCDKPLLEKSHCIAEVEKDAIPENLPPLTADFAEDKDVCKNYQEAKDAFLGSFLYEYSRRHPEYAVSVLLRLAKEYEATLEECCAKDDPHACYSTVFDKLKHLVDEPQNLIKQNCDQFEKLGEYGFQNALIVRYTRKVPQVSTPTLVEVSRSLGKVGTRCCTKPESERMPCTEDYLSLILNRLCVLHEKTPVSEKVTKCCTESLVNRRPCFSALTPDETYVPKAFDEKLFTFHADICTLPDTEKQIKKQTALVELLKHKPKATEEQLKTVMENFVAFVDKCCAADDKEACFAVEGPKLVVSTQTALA

TNF-alpha = target: T6, TNF-alpha (human, UniProt P01375 77-233); test: phage ELISA
T6 construct: also called TNFα; TNF-α
T6 sequence (P01375 77-233 limits assumed): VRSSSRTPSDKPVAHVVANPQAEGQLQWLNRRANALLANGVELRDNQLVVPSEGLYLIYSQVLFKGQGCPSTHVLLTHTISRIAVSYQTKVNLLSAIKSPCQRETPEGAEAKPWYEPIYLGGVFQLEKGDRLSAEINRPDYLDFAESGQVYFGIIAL

Fas ligand = target: T7, Fas ligand (human, UniProt P48023 134-281, limits assumed); test: phage ELISA
T7 sequence (looked up): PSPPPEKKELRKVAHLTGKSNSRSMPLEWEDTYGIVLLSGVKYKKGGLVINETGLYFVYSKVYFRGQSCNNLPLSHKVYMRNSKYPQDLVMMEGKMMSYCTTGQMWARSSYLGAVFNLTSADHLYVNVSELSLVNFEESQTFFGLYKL

TRAIL = target: T8, TRAIL (human, UniProt P50591 114-281); test: phage ELISA
T8 construct: also called TNF-related apoptosis inducing ligand
T8 sequence (P50591 114-281 limits assumed): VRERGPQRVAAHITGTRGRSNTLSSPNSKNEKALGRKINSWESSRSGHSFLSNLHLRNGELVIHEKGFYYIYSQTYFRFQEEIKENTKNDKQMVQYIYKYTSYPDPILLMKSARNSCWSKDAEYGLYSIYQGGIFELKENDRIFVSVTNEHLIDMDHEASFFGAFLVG

[5] = target: T1, B Lymphocyte Stimulator, soluble form …; test: phage competition ELISA

B2: I116A01 IgG1 (antibody, V domains shown)
VH: QVQLQQSGAEVKKPGSSVRVSCKASGGTFNNNAINWVRQAPGQGLEWMGGIIPMFGTAKYSQNFQGRVAITADESTGTASMELSSLRSEDTAVYYCARSRDLLLFPHHALSPWGRGTMVTVSS
VL: SSELTQDPAVSVALGQTVRVTCQGDSLRSYYASWYQQKPGQAPVLVIYGKNNRPSGIPDRFSGSSSGNTASLTITGAQAEDEADYYCSSRDSSGNHWVFGGGTELTVLG
Kd [2]: 0.267 nM | koff [2]: 0.000332 s⁻¹ | kon [2]: 1.26e+06 M⁻¹ s⁻¹

B3: I006D08 IgG1 (antibody, V domains shown)
VH: QVQLQQSGAEVKKPGSSVRVSCKASGGTFNNNAINWVRQAPGQGLEWMGGIIPMFGTAKYSQNFQGRVAITADESTSTASMELSSLRSEDTAVYYCARSRDLLLFPHYGMDVWGRGTMVTVSS
VL: SSELTQDPAVSVALGQTVRVTCQGDSLRSYYASWYQQKPGQAPVLVIYGKNNRPSGIPDRFSGSSSGNTASLTITGAQAEDEADYYCNSRDSSGNHWVFGGGTELTVLG
Kd [2]: 0.498 nM | koff [2]: 0.00058 s⁻¹ | kon [2]: 1.43e+06 M⁻¹ s⁻¹

B5: BAB2034 (scFv)
scFv: QVQLQQSGPGLVKPSQTLSLTCAISGDSVSSNSAAWNWIRQSPSRGLEWLGRTYYRSKWYNDYAVSVKSRITINPDTSKNQFSLQLNSVTPEDTAVYYCAREGAHYDILTGHNYYHYGMDVWGQGTMVTVSSGGGGSGGGGSGGGGSQSVLTQPPSASGSPGQSVTISCTGTSSDVGGYNYVSWYQQHPGKAPKFMIYDVSKRPSGVSNRFSGSKSGNTASLTISGVQAEDEADYYCSSYTSASTVIFGGGTKLTVLG
binding result [1]: binds | binding result (APRIL, soluble form): binds

B9: BAB2019 (scFv)
scFv: EVQLVQSGAEVKKPGASVKVSCKASGYTFTSSGISWVRQAPGQGLEWMGWINGYNGNTKYAQKFQGRVTMTTDTSTTTAYMELRSLRSDDTAVYYCARDSYDILTDYYNMIMDVWGQGTLVTVSSGGGGSGGGGSGGGGSQSVLTQPASVSGSPGQSITISCTGTSSDVGGYNYVSWYQQHPGKAPKLMIYEGSKRPSGVSNRFSGSKSGNTASLTISGLQAEDEADYYCSSYTTRSTRVFGGGTKLTVLG
binding result [1]: binds | binding result (APRIL, soluble form): binds

B10: BAB2087 (scFv)
scFv: QVQLVQSGAEVKKPGASVKVSCKASGFAFSSYDINWVRQAPGQGLEWMGWMNPKSGKTGYAQNFQGRVTMTRNTSISTAYMELSSLKSEDTAVYFCARGFTGYDILTDYYSVDYFDSWGRGTLVTVSSGGGGSGGGGSGGGGSALPVLTQPPSVSVAPGQTARITCGGSSIGRKSVHWYQQSPGQAPVLVVYDDSDRPSGIPERFSGSNSGDTATLTISRVEVGDEADYYCQVWDINSDHVVFGGGTKLTVLG
binding result [1]: binds | binding result (APRIL, soluble form): binds

B11: BAB2015 (scFv)
scFv: QVQLVQSGAEVKKPGSSVKVSCKASGGTLGNYGISWVRQAPGQGLEWMGAIIPNFGTTNYVQKFQGRVTMTTDTSTSTAYMELRSLRSDDTAVYYCARGASSGWYDYYYYMDVWGKGTMVTVSSGGGGSGGGGSGGGGSDIQMTQSPSTLSASIGDRVTITCRASEGIYHWLAWYQQKPGKAPKLLIYKASSLASGAPSRFSGSGSGTDFTLTISSLQPDDFATYYCQQYSNYPLTFGGGTKLEIRR
binding result [1]: binds | binding result (APRIL, soluble form): binds

B12: BAB2065 (scFv)
scFv: GVQLVQSGAEVKKPGASVKVSCKASGYTFTKYTMHWVRQAPGQGPEWMGWINGGSGDTKYSRKFQGRVTITKDTSASAAYMELSSLGSEDTALYYCARATYDPLTGYSFDGFDIWGQGTMVTVSSGGGGSGGGGSGGGGSSELTQPASVSGSPGQSITISCTGTSSDVGGYNYVSWYQQHPGKAPKLMIYEGSKRPSGVSNRFSGSKSGNTASLTISGLQAEDEADYYCSSYTTRSTRVFGGGTKLTVLG
binding result [1]: binds | binding result (APRIL, soluble form): binds

B13: BAB2016 (scFv)
scFv: EVQLVQSGGGLVQPGGSLRLSCAASGFTFSSYWMSWVRQAPGKGLEWVANIKQDGSGKYYVDSVKGRFTISRDNAKNSLYLQMNSLRAEDTAVYYCARDPRYDILTGYLYGMDVWGQGTMVTVSSGGGGSGGGGSGGGGSQSVLTQPASVSGSPGQSITISCTGTSSDVGGYNYVSWYQQHPGKAPKLMIYEGSKRPSGVSNRFSGSKSGNTASLTISGLQAEDEADYYCSSYTTRSTRVFGGGTKLTVLG
binding result [1]: binds | binding result (APRIL, soluble form): binds

Next, values leading:

binding result [1]: binds | binding result (APRIL, soluble form): binds
B1: BAB2001 (scFv)
scFv: GVQLVQSGAEVRKPGASVKVSCKPSGYPFSGNYIHWVRQAPGQGPEWMGWINPNSGDTKYSQKFQGWVTMTRDTSVSTVYMELNRLKSDDTAIYYCAREQYDTLTGSPYGMDVWGKGTLVTVSSGGGGSGGGGSGGGGSDIQMTQSPSTLSASIGDRVTITCRASQGINNYLAWYQQKPGRAPKLLIYAASSLQSGVPSRFSGSGSGTDFTLTISSLQPEDFATYYCLQDSDYPLTFGGGTKLEIKR

binding result [3]: binds | binding result [4]: binds | binding result (Bovine serum albumin): no binding | binding result (TNF-alpha): no binding
B4: I008D05 (scFv)
scFv: GVQLVQSGAEVKKPGSSVKISCKASGVTFNDYAFSWVRQAPGQGLEWVGGIIPKFGKAKYAQKFQGRLTISGDKSTSTAYMELRSLTSDDTAVYYCARATYDPLTGYSFDGFDIWGQGTMVTVSSGGGGSGGGGSGGGGSQSVLTQPASVSGSPGQSITISCTGTSSDVGGYNYVSWYQQHPGKAPKLMIYEGSKRPSGVSNRFSGSKSGNPASLTISGLQAEDEADYYCSSYTTRSTRVFGGGTKLTVLG
notes: also called 1008D05

binding result [3]: binds | binding result [4]: binds | binding result (Bovine serum albumin): no binding | binding result (TNF-alpha): no binding
B6: I006E07 (scFv)
scFv: QVQLQQSGAEEKKPGASVKVSCKASGYTFTSYAMHWVRQAPGQRLEWMGWINAGNGNTKYSQKFQGRVAITRDTSASTAYMELSSLRSEDTAVYYCARADYDILTGYSPLTYGMDVWGRGTLVTVSSGGGGSGGGGSGGGGSDIQMTQSPSTLSASIGDRVTITCRASEGIYHWLAWYQQKPGKAPKLLIYKASSLASGAPSRFSGSGSGTDFTLTISSLQPDDFATYYCQQYSNYPLTFGGGTKLEIKR

binding result [3]: binds | binding result (Fas ligand): no binding | binding result (TRAIL): no binding | binding result (Bovine serum albumin): no binding | binding result (TNF-alpha): no binding | binding result [5]: binds
B7: I016F04 (scFv)
scFv: QVQLQQSGSELKKPGASVKVSCKVSGYSLTKMSMHWVRQSPGEGLEWVGGIDPETRQPVYAQKFQGRVTITKDTSASAAYMELSSLGSEDTALYYCARATYDPLTGYSFDGFDIWGQGTLVTVSSGGGGSGGGGSGGGGSQSVLTQPASVSGSPGQSITISCTGTSSDVGGYNYVSWYQQHPGKAPKLMIYEGSKRPSGVSNRFSGSKSGNTASLTISGLQAEDEADYYCSSYTTRSTRVFGGGTKLTVLG

binding result [1]: binds | binding result (APRIL, soluble form): binds
B8: BAB2080 (scFv)
scFv: KVQLVQSGGGLVKPGGSLRLSCAASGFTFSNYGMHWVRQAPGKGLEWVALISYDGSNKYYADSVKGRFTISRDNSKNTLYLQMNSLRAEDTAVYYCAKLNSLRGGHDYWGRGTLVTVSSGGGGSGGGGSGGGGSQSVLTQPPSVSAAPGQKVTISCSGSTSNIGNNYVSWYQQHPGKAPKLMIYDVSKRPSGVPDRFSGSKSSNSASLDISGLQSEDEADYYCAAWDDSLSEFLFGTGTKLTVLG
